Measurements: patent US12551573B2, “Compositions and methods for the targeting of PCSK9” (Scribe Therapeutics Inc., priority 2022, dated 2026)
Residue numbers refer to the chain shown, from its start.

B1: DOMAIN_9960 (protein, listed as Octodon degus)
chain: AVTMEDVTVTFTNEEWALLNPAQKRLYGDVMWETFRTISAIGRTWDSQQMEEEYKNYLRNLSNEEVAKCCRYTTFNQHENI
B2: DOMAIN_10277 (protein, listed as Dipodomys ordii)
chain: SNKLVSFDDVAVEFSWEEWQELDISQRTLYRDVMLETYSMLVSLGHTGPKPQLIVKLEQDEESYMREASDKNFSDVQKMKH
B3: DOMAIN_13331 (protein, listed as Macaca fascicularis)
chain: FQGSISFKDVTVGFTQEEWQHLDPSQRALYRDVMLENYSNLVSVGYCVHKPEVISRLEQGEEPWRLEEEFPSQSFPVWTAD
B4: DOMAIN_9332 (protein, listed as Peromyscus maniculatus)
chain: TENAVTYDDVHVGFTWEEWALLDPSQKNLYKDVMLDTYRNLTTIGYSWEGHNIEEHFQSSRRHERHKRSDTGENSSVYTQC
B5: DOMAIN_9303 (protein)
chain: FKGPVTFKDVTVEFTKEEWKLLTPAQRTLYKDVMLENYNHLVSVGYRVSKPNLVFKLKQGKEPWVLEVEFPRRRCPEELWN
modifications: Marmota monax
B6: DOMAIN_9329 (protein, listed as Peromyscus maniculatus)
chain: NAVTYNDVHVDFTQEEWALMDPSQRNLYKDVMVETYMNLTAIGYNWEDLEVEEHCQNSLKHGRHKRPHTTEKSCEYMGCGK
B7: DOMAIN_8953 (protein, listed as Mus caroli)
chain: MNGMTYDDVHVNFTGEEWALLSPSQKRLYKDVMLETYRNLTAIGYSWEDRNIEEHFQRSRRHGRHERSHTGENPSVYTQCN
B8: DOMAIN_9541 (protein, listed as Dipodomys ordii)
chain: SQGLVTFEDVAVYFSLEEWERLNVEQRALYQEVMQGNYGILVSLGYPIPKPDLIFRLEQGEEPWVPDSPHPEEGDIVTGVY
B9: DOMAIN_10241 (protein, listed as Octodon degus)
chain: PTAPVAFSDLTICFSQEEWGWLSPTQKLLYEEVMLENYQNLVSVGLCTRKPHIITLLEKGKDPWIAEPLRKRGGPDPASRY
B10: DOMAIN_11321 (protein)
chain: GKELLSFEDVAMYFTREEWGHLNLGQKDLYRDVMLENYRNMVLLGFQFPKPEVICQLENWDEQWILDLPRAGNRKASGSAC
modifications: Nomascus leucogenys
B11: DOMAIN_9706 (protein, listed as Octodon degus)
chain: SPVLVSFDDVFVSFTREEWQVLDNAQRALYGDVMLETYRSLVLLGQCITKPEVIFKLEQGVEPWTGGEPHNQSPPDVQEVD
B12: DOMAIN_9716 (protein, listed as Mus caroli)
chain: PKVTVSFEDVSVYFTKTEWKLLDLKQRNLYKQVMLENYSHLVSVGFAFSKPNLVSQLERGEKPWIRDDRMESAARSRAGNR
B13: DOMAIN_10974 (protein)
chain: AQMLVTFEEVAVYFTQGQGALLGPAQRALYRDVMQENYEMVTSLGFSLPKPELISRLERGEEPWVPDLQACEKRESLRGAR
modifications: Chelonia mydas
B14: DOMAIN_11312 (protein, listed as Sus scrofa)
chain: ALGSVTFRDVAVFFSQDEWLHLDSAQKTLYQEVMLENYSTLVSLGIPFSMPKVICQLQQGEDPCMVEGEALRDPCLDFKTW
B15: DOMAIN_9993 (protein, listed as Rattus norvegicus)
chain: DVVTYEDVHVNFTQEEWALLDPSQKRLYKVVMLETYKNLSAIGYIWEDHTIEQHFQSSRSHGRHKRHRTGEQPSELIQHGK
B16: DOMAIN_9559 (protein, listed as Mus caroli)
chain: MGLVSFEDIAVYFNLEEWQDLDTAQRTLYRDVMLETYSSLVFLDPCIAKPKLIFNLERGFGPWSLAEASSRSLPGVHNVST
B17: DOMAIN_10612 (protein)
chain: ALESVTFRDVAVFFSRDEWLHLNPAQRALYREVMLDNYSALLSLGILFSKPKVILQLEQGEDPWMVENGVSQSACLGWESL
modifications: Vicugna pacos
B18: DOMAIN_10573 (protein, listed as Cervus elaphus)
chain: SHTLVTFKDILVNFTREEWKLLDTAQQIMYKDVMLENYRNLVSLGHQLPKPDVILRLEKGEEPWLVEKEIHQETHPDLETP
B19: DOMAIN_11071 (protein, listed as Chrysochloris asiatica)
chain: SLEQVSFKDVCVDFTQEEWYLLDPAQKILYRDVILENYSNIVSVGHCGTKPEVIFKIEQGEEPWVLGEGFSSLQHPERNWK
B20: DOMAIN_8862 (protein)
chain: TLGLLSFNDVSLEFSWEEWQLLDSAQRYLYREVILENYSNLLSVGYHGTKPDLIFRLEQGEEPWILNAKMSTQNCPEVWED
modifications: Marmota monax
B21: DOMAIN_8881 (protein, listed as Cricetulus griseus)
chain: MAFEDVAVYFSQEEWVFLDAAQRALYRHVMLENFALVDSIGLSISRPRVIIQLQRGEEPWVSNRTNTGPGRGTRRRPSLGS
B22: DOMAIN_9217 (protein, listed as Mesocricetus auratus)
chain: B21 chain with V16M, I44V, S62P, T67P, G72S, R74C
B23: DOMAIN_10359 (protein)
chain: AQGLMAFEDVAVYFSREEWGLLDAAQRALYRRVMLENFTLLASLGLSVSRPHVVIQLECGKEPWVLNGTDVTLARNAQRRP
modifications: Delphinapterus leucas
B24: DOMAIN_10763 (protein, listed as Mustela putorius)
chain: PKVPVSFEDVSVYFTKTEWKLLDVQQRILYKTVMLENYHHLVSLGCLSTKPHLVSWLEQGEGPWTTDIWRTPATAKTQTEG
B25: DOMAIN_9119 (protein, listed as Mesocricetus auratus)
chain: FQNSLTFDDVAVDFTQEEWVLMDQTQRDLYREVMLENYQNLFSAGCEITKPSLISWLEEDLQIGQREDFQEWEMQDTLREQ
B26: DOMAIN_11049 (protein, listed as Neophocaena asiaeorientalis)
chain: PQGCAISEDVFVYFSREEWVLLDEDQRLLYRDVMLENFALLASLGIASSRSHLVTQLEQGEEPWMPAQVDMTPATEKEAQK
B27: DOMAIN_11097 (protein, listed as Mandrillus leucophaeus)
chain: KEASVAFRDVAVDFTQEEWRLLSPAQRTLHREVMLETYNHLVSLEIPSSKPKLIAQLERGEEPWREERKCSLDLCPESKPE
B28: DOMAIN_9617 (protein, listed as Mesocricetus auratus)
chain: LQDSVTFKDVAVDFSQEEWERLNPAQRSLYRTVVLENYWNLVSVGACVSKSHLISLLEHGKAPWDMRGEVTESTSQDGESV
B29: DOMAIN_9489 (protein, listed as Dipodomys ordii)
chain: LASISFEDLAVTFTEEEWEHLDLGQRNLYQEVMLETYQLLVSLGDQVRLAPPTPGTPLPALPAQPRLLGLPSQPLDRRGTP
B30: DOMAIN_11307 (protein, listed as Mandrillus leucophaeus)
chain: MAFEDVAVYFSQEEWGLLDTAQRALYRRVMLDNFALVASLGLSTSRPRVVIQLERGEEPWVPSRTDTILSRNTYRRRNPGS
B31: DOMAIN_9141 (protein, listed as Mus caroli)
chain: LNSAVTYDDVNVNFTREEWALLDSSQKSLYKDVMLETYRNLTAIGYNWEGHNIEEHCQSSRRHARTHKRTHTGEKSYECDQ
B32: DOMAIN_11314 (protein, listed as Sus scrofa)
chain: VTFEDVALYFSRDEWRLLDEAQRRLYHDVMLQNFSLISSLGCCCGAEDAESPFQPSMFRDVSQARTLKAASLSQKNHPCEK
B33: DOMAIN_10807 (protein, listed as Erinaceus europaeus)
chain: SQASVSFKDVTVEFTQDEWRLMSSAQRTLYREVMLENYSHLISMGYCSTKPELIFALEQKDFRESILERESLSTIPPEDFQ
B34: DOMAIN_8982 (protein, listed as Mesocricetus auratus)
chain: MGAVTYDDVHINFTQEEWALLNPSQKRLYKDVMHDTYSNLTATGYSLEDHYIEEHCQSSRRCRRHLQRHKKVHIGEKPYES
B35: DOMAIN_9858 (protein, listed as Mesocricetus auratus)
chain: MDAVTYDDVHINFTLEEWALLNPSQKSLYKDVMLDTYRNLTAIGYSWDDHNIEEICQSSRSHRRHLQRHAKINTGEKPYGS
B36: DOMAIN_11202 (protein)
chain: RQAFLAFGDVTVDFTQKEWRLLSPAQRALYREVTLENYSHLVSLGILHSKPELIRRLEQGEAPWGEERRRRPGPCAGIYAE
modifications: Nomascus leucogenys
B37: DOMAIN_10057 (protein, listed as Mus musculus)
chain: MDALTFDDVHVHFTREEWSLLDPSQKRLYKDVMLEIYKNLTAIGYKWKDHNVGEHSQNDRRYGRHERSPAGENHNEYTQCD

What follows are molecules tested on HBEGF locus. Settings: high-throughput screen of dXR repression of the HBEGF gene; change in abundance of each domain in the library before and after diphtheria toxin selection.
Format: cell-based, human

Molecule	Log2 (fold change)
B1	3.4751
B2	2.8257
B3	3.5154

Same assay, conditions: repressor domain in dXR, repression of the HBEGF gene; abundance of domain in library after vs before diphtheria toxin selection

Molecule	Log2 (fold change)
B4	3.9002
B5	2.5344
B6	4.263
B7	2.5941
B8	2.8442
B9	3.5766
B10	2.9718
B11	2.821
B12	2.9009
B13	2.6444
B14	3.8532
B15	2.7601
B16	3.327
B17	2.4997
B18	2.4077
B19	3.1268
B20	2.3521

Molecule	Log2 (fold change)
B21	3.743
B22	3.8919
B23	2.9199
B24	2.5924
B25	2.2985
B26	2.7072
B27	3.239
B28	2.4034
B29	3.0215
B30	3.6383
B31	3.035
B32	2.9575
B33	3.5237
B34	3.1585
B35	3.0047
B36	3.5851
B37	2.2961
